The source of these data is publication PMC8115485 (Nature Communications, 2021).

In test [1] the target is T1, HisH (Thermotoga maritima, UniProt Q9X0C8, C84S).
T1 sequence (Q9X0C8 1-201 C84S): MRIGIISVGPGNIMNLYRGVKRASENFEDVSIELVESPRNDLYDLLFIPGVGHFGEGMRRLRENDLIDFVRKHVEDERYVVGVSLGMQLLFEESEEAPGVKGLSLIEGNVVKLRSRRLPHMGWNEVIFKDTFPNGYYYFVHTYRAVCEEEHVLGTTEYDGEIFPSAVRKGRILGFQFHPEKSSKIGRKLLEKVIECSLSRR
T1 sequence (Q9X0C6 1-253 partner): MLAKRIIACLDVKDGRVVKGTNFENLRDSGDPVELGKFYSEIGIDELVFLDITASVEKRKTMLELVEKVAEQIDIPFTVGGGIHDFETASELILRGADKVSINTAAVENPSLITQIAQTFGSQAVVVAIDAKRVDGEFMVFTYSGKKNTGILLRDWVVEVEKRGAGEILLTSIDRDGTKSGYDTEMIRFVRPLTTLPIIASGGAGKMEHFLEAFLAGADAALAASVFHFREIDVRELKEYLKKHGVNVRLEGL
Kind of test: NMR titration in the presence of ProFAR. Format: binding. Set-up: HisFH-hC84S complex; with HisF.

Test [2] concerns the target T2, HisH (Thermotoga maritima, UniProt Q9X0C8, C84A).
T2 construct: HisFH-hC84A complex; with HisF
T2 sequence (Q9X0C8 1-201 C84A): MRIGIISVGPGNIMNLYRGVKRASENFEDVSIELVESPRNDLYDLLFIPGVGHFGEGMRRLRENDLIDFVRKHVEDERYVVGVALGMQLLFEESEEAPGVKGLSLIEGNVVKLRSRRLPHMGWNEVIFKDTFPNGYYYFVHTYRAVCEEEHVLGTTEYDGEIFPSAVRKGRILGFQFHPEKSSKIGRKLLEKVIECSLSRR
T2 sequence (Q9X0C6 1-253 partner): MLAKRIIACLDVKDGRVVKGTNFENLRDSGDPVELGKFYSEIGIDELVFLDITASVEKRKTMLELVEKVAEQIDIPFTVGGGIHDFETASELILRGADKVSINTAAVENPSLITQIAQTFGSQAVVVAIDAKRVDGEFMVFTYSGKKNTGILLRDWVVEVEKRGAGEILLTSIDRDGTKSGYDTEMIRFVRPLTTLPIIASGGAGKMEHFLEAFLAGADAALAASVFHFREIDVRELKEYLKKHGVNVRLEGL
As to the kind of experiment: X-ray crystal structure at […] Å. It counts as binding.

Test [3] addresses T1, HisH. Kind of test: biochemical.
Test [4] concerns the target T3, HisH (Thermotoga maritima, UniProt Q9X0C8).
T3 sequence (Q9X0C8 1-201): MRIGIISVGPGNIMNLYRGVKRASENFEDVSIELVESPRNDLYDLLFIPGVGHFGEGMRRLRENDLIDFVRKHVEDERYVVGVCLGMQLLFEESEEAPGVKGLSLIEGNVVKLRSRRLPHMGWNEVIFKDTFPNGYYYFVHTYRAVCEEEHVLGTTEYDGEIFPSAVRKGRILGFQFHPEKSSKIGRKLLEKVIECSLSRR
T3 sequence (Q9X0C6 1-253 partner): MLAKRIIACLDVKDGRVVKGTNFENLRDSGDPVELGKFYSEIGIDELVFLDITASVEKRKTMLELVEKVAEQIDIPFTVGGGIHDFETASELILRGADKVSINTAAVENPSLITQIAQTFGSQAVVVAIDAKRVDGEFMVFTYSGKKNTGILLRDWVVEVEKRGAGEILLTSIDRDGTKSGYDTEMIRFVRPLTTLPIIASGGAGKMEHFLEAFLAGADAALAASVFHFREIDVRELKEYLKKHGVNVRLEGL
As to the kind of experiment: NMR titration (methyl TROSY). Format: binding. Set-up: WT HisFH complex; with HisF.

The next test concerns the target T4, HisF (Thermotoga maritima, UniProt Q9X0C6).
T4 construct: HisF-wt without tag, in the HisFH-hC84A complex; with HisH (hC84A)
T4 sequence (Q9X0C6 1-253): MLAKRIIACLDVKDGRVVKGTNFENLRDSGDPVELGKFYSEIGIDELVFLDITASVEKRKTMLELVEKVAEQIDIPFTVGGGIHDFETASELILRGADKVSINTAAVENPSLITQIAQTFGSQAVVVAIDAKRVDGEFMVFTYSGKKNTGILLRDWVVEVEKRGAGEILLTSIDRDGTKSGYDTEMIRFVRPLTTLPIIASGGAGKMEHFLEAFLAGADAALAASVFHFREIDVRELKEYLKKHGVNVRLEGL
T4 sequence (Q9X0C8 1-201 C84A partner): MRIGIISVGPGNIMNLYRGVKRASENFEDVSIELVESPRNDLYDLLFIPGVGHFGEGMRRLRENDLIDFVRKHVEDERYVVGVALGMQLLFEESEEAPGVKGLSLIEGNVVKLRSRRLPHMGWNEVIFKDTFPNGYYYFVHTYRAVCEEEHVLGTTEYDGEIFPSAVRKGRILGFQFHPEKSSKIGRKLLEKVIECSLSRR
Kind of test: X-ray crystal structure at […] Å; NMR titration; glutaminase activation. Format: binding.

Test [5] has as its target T5, HisF, cyclase subunit of imidazole glycerol phosphate synthase from Thermotoga maritima, wild type, without … (Thermotoga maritima, UniProt Q9X0C6 1-253).
T5 construct: HisF of Thermotoga maritima, Uniprot ID Q9X0C6; Crystallised as the HisFH-hC84A complex; also called HisF-wt; source: E. coli, expressed separately; cell lysate combined with that of HisH before the NiNTA column, complex purified (NiNTA, SEC)
T5 sequence: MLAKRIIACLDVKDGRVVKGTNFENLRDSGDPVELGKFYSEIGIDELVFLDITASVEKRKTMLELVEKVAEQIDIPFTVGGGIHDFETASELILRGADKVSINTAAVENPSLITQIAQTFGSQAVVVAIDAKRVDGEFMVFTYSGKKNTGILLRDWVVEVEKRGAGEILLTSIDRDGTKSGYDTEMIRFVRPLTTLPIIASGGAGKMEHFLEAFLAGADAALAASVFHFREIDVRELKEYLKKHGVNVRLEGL
Kind of test: crystal structure; HisFH-hC84A complex at 30 mg/ml in 10 mM Tris-HCl pH 8.0, 100 mM NaCl; hanging drop, 18 °C, 10 mM L-glutamine, 10 mM ProFAR added by soaking; 2.06 Å; three HisFH complexes in the asymmetric unit. The note with it: both partners purified.

Test [6] has as its target T6, HisF, cyclase subunit of imidazole glycerol phosphate synthase from Thermotoga maritima, wild type (NMR … (Thermotoga maritima, UniProt Q9X0C6 1-253)).
T6 construct: HisF of Thermotoga maritima, Uniprot ID Q9X0C6; Deuterated and 15N labelled where HisF is observed; also called WT HisF; HisF-wt; source: E. coli BL21-CodonPlus (DE3)-RIL or BL21 Gold (DE3), purified (heat shock, NiNTA, TEV digestion, SEC); not shown: His-tag, N-terminal, cleaved
T6 sequence: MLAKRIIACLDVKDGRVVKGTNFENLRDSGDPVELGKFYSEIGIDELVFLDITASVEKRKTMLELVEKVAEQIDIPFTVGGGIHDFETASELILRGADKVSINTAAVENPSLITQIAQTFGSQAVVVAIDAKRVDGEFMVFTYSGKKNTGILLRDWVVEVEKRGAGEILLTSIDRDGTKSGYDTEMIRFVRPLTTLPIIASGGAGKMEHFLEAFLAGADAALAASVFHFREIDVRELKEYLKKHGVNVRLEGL
As to the kind of experiment: NMR spectra (TROSY, methyl-TROSY) of the complex reconstituted by SEC; HisF and HisH combined at a 1.3/1 ratio after TEV digestion, free HisF removed on Superdex 75 in NMR buffer (50 mM NaCl, 20 mM HEPES pH 7.3, 1 mM DTT); spectra at 30 °C, 50-150 µM protein. The note with it: both partners purified. In general terms: SEC sorts molecules by how far they enter the pores of the column.

Test [7] has as its target T7, HisF from Thermotoga maritima, K19A mutant (Thermotoga maritima, UniProt Q9X0C6 1-253, fK19A).
T7 construct: HisF of Thermotoga maritima, Uniprot ID Q9X0C6; also called fK19A; source: E. coli, purified
T7 sequence (looked up): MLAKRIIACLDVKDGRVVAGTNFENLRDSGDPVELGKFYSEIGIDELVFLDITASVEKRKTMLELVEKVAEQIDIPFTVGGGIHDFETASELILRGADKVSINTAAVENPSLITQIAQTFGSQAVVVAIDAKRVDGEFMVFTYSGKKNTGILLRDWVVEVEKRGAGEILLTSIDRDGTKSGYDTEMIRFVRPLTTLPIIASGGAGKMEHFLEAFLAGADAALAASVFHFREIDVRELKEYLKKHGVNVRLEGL
Described as above. The settings on record: both partners purified.

For test [8], the target named is T8, HisF from Thermotoga maritima, V48A mutant (Thermotoga maritima, UniProt Q9X0C6 1-253, fV48A).
T8 construct: HisF of Thermotoga maritima, Uniprot ID Q9X0C6; also called fV48A; source: E. coli, purified
T8 sequence (looked up): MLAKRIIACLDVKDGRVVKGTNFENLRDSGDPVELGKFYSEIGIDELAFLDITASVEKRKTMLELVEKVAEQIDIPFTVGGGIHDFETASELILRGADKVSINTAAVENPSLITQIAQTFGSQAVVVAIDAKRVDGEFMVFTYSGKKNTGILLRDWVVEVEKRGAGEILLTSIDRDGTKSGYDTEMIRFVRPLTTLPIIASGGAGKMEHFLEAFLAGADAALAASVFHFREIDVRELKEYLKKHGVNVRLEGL
Described as above. The note with it: both partners purified.

Test [9] concerns the target T9, HisF from Thermotoga maritima, F23A mutant (Thermotoga maritima, UniProt Q9X0C6 1-253, fF23A).
T9 construct: HisF of Thermotoga maritima, Uniprot ID Q9X0C6; also called fF23A; source: E. coli, purified
T9 sequence (looked up): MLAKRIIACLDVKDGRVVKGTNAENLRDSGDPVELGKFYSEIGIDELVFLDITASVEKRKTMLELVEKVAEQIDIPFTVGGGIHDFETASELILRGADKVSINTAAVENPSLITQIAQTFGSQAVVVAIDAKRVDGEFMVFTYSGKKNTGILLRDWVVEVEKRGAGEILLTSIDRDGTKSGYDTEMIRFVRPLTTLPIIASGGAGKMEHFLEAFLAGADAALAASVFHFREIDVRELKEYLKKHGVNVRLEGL
The description is as above. The note with it: both partners purified.

The target in test [10] is T10, HisF from Thermotoga maritima, D98E mutant (Thermotoga maritima, UniProt Q9X0C6 1-253, fD98E).
T10 construct: HisF of Thermotoga maritima, Uniprot ID Q9X0C6; also called fD98E; HisF-D98E; source: E. coli, purified
T10 sequence (looked up): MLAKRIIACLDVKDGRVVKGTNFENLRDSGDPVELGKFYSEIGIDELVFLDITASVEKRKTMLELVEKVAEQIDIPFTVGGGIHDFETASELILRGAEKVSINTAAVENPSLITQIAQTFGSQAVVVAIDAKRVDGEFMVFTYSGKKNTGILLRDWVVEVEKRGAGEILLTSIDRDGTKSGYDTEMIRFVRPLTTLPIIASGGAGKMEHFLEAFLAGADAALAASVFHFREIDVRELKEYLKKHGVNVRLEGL
The description is as above. The note with it: both partners purified.

`NC(=O)NC[C@H](N)C(=O)O` [Albizziin]: on HisH [1], the “NMR titration in the presence of ProFAR” value is recorded as “for the HisFH–hC84S mutant the active conformation is clearly visible”.
One may read the Kd as a measure of binding affinity in units of concentration. Consider `NC(=O)CC[C@H](N)C(=O)O` [Gln], for which the “X-ray crystal structure at 2.06 Å” value on HisH [2] was “The asymmetric unit contains three HisFH complexes”. The values for the Kd on HisH [3] and on HisH [4] were 1700 ± 100 µM and 1300 ± 100 µM, respectively.
Consider `NC(=O)c1ncn([C@@H]2O[C@H](COP(=O)(O)O)[C@@H](O)[C@H]2O)c1N=CN[C@@H]1O[C@H](COP(=O)(O)O)[C@@H](O)[C@H]1O` [ProFAR], for which the “X-ray crystal structure at 2.06 Å; NMR titration; glutaminase activation” value at HisF is given as “the HisF active site shows unambiguous electron density for a ProFAR molecule”.

B1: HisH, glutaminase subunit of imidazole glycerol phosphate synthase from Thermotoga maritima, C84A mutant (crystallisation construct) (enzyme)
chain: MRIGIISVGPGNIMNLYRGVKRASENFEDVSIELVESPRNDLYDLLFIPGVGHFGEGMRRLRENDLIDFVRKHVEDERYVVGVALGMQLLFEESEEAPGVKGLSLIEGNVVKLRSRRLPHMGWNEVIFKDTFPNGYYYFVHTYRAVCEEEHVLGTTEYDGEIFPSAVRKGRILGFQFHPEKSSKIGRKLLEKVIECSLSRR
notes: HisH of Thermotoga maritima, Uniprot ID Q9X0C8; also called hC84A; HisH-C84A; source: E. coli, expressed separately; cell lysate combined with that of HisF before the NiNTA column, complex purified (NiNTA, SEC)
Turning to B1, the binding result in test [5] is reported as “binds”.

B2: HisH, glutaminase subunit of imidazole glycerol phosphate synthase from Thermotoga maritima, C84S mutant (enzyme, UniProt Q9X0C8 1-201, looked up)
chain: MRIGIISVGPGNIMNLYRGVKRASENFEDVSIELVESPRNDLYDLLFIPGVGHFGEGMRRLRENDLIDFVRKHVEDERYVVGVSLGMQLLFEESEEAPGVKGLSLIEGNVVKLRSRRLPHMGWNEVIFKDTFPNGYYYFVHTYRAVCEEEHVLGTTEYDGEIFPSAVRKGRILGFQFHPEKSSKIGRKLLEKVIECSLSRR
notes: HisH of Thermotoga maritima, Uniprot ID Q9X0C8; Deuterated, ILMVA methyl labelled or histidine ring-13C2 labelled for NMR; also called hC84S; HisH-C84S; source: E. coli BL21-CodonPlus (DE3)-RIL, purified (heat shock, NiNTA, TEV digestion, SEC); not shown: His-tag, N-terminal, cleaved
With B2, the binding result in [6], in test [7], in test [8], in test [9] and in test [10] was “binds” each time.

B3: HisH from Thermotoga maritima, C84A mutant (NMR samples) (enzyme, UniProt Q9X0C8 1-201, looked up)
chain: MRIGIISVGPGNIMNLYRGVKRASENFEDVSIELVESPRNDLYDLLFIPGVGHFGEGMRRLRENDLIDFVRKHVEDERYVVGVALGMQLLFEESEEAPGVKGLSLIEGNVVKLRSRRLPHMGWNEVIFKDTFPNGYYYFVHTYRAVCEEEHVLGTTEYDGEIFPSAVRKGRILGFQFHPEKSSKIGRKLLEKVIECSLSRR
notes: HisH of Thermotoga maritima, Uniprot ID Q9X0C8; probably the same construct as m2, kept apart because the state of the tag is told only for the labelled proteins; also called hC84A; source: E. coli BL21-CodonPlus (DE3)-RIL, purified (heat shock, NiNTA, TEV digestion, SEC); not shown: His-tag, N-terminal, cleaved
As for B3, the binding result in test [6] is given as “binds”.
